This is an account of results in patent US20070099822A1, “Regulation of tissue mineralization and phosphate metabolism by asarm peptides” (priority 2003, published 2007).

In the assay the test system is Male ICR-Swiss mice. In words: Intraperitoneal administration of Hu-MEPE and PTH (1-34) into mice, serum and urine assays. The format is in vivo. The settings on record: for serum phosphate: vehicle 11.94; for serum 1,25-dihydroxy vitamin-D3: vehicle 25.2; for serum alkaline phosphatase: vehicle 65.06. As for the experimental part: Intraperitoneal administration of Hu-MEPE and PTH (1-34) into mice. Male ICR-Swiss mice were used as recipients for intraperitoneal administration (100 μl) of 0.1% phosphate-buffered saline/0.1% bovine serum albumin (vehicle) and experimental conditions (Hu-MEPE and PTH 1-34) dissolved in 100 μL of vehicle. Two separate (repeat) experiments were conducted consisting of four groups with 6 and 7 animals per group. The control group was administered with 100 μL of vehicle (Group-1). Group-2 consisted of animals administered with 0.8 μg/injection of parathyroid hormone (PTH 1-34). Group 3 were injected with 0.4 μg/injection of Hu-MEPE and Group-4 with 4 μg/injection of Hu-MEPE. On day one, three bolus injections were given at 0, 3 h, and 6 h. Serum samples were then collected via retro-orbital bleed one hour after the 6 h bolus administration. The next day or 30 hours after the first bolus a fourth bolus (same amount) was given and after 1 h the animals were sacrificed and serum prepared after cardiac exsanguination. The total amounts of PTH and MEPE administered over the 30 h were 80 μg/kg/30 h PTH 1-34, 40 μg/kg/30 h Hu-MEPE (MEPE-40) and 400 μg/kg/30 h Hu-MEPE (MEPE-400). Each group was placed in a separate metabolic cage and urine was collected for the 6-hour period. After the first 6-hour urine collection mice were replaced in thoroughly cleaned metabolic cages for the remaining 24 hours. The second 24-hour urine was collected immediately after the animals were sacrificed. The urine volumes for the second and first collections were measured. Collecting urine samples from large numbers of small mice over the time frame of the experiment was not feasible. Therefore, urine samples from each group (n=7) were pooled and volumes measured via a specially designed collecting duct in the metabolic cage. To ensure reproducibility the experiment was repeated twice (the same changes occurred). To calculate the fractional excretion of phosphate (FEP) the following equation was used: 100−(100×(1−(A/B))) where A=(urine phosphorus in mg/dL)×(serum creatinine in mg/dL) and B=(urine creatinine in mg/dL)×(serum phosphorus in mg/dL). To calculate renal phosphorus clearance (RPC) in mL/minute following computation was used: (urine phosphorus in mg/dL)×(urinary volume in mL)/((serum phosphorus in mg/dL)×(time of collection in minutes)). The phosphate excretion index (PEI) was calculated using the same method described by Shimada et al. (Cloning and characterization of FGF23 as a causative factor of tumor-induced osteomalacia, Proc Natl Acad Sci USA 98:6500-6505, 2001) using the following formula: ((urinary concentration of phosphorus in mg/dL)/(serum concentration of phosphorus in mg/dL))/(total urinary creatinine in mg).
Serum and urine assays. Serum and urine assays for phosphate, calcium, chloride, potassium, creatinine, glucose and alkaline phosphatase were accomplished using 96 well format KC4-spectrophotometer multiplate kinetic/end-point analyses using routine methods and diagnostic-kits Sigma-Diagnostics). Serum 1,25-dihydroxy vitamin-D3 levels were estimated using the method of Reinhardt, et al. (A microassay for 1,25-dihydroxyvitamin D not requiring high performance liquid chromatography: application to clinical studies, J Clin Endocrinol Metab 58:91-98, 1984). Analysis of data for fractional excretion of phosphate (FEP) was carried out following the same method described previously by Shimada et al. (Mutant FGF-23 responsible for autosomal dominant hypophosphatemic rickets is resistant to proteolytic cleavage and causes hypophosphatemia in vivo, Endocrinology 143:3179-82, 2002) for FGF23 bolus administration studies and by Nesbitt et al. (Crosstransplantation of kidneys in normal and Hyp mice: Evidence that the Hyp mouse phenotype is unrelated to an intrinsic renal defect, J Clin Invest 89:1453-59, 1992) for renal cross-transplantation experiments in Hyp mice.
Statistical methods. […]

B1: Hu-MEPE: purified insect expressed full-length recombinant human MEPE (Matrix Extracellular Phosphoglycoprotein) (protein)
chain: PTFQPQTEKTKQSCVEEQRQEEKNKDNIGFHHLGKRINQELSSKENIVQERKKDLSLSEASENKGSSKSQNYFTNRQRLNKEYSISNKENTHNGLRMSIYPKSTGNKGFEDGDDAISKLHDQEEYGAALIRNNMQHIMGPVTAIKLLGEENKENTPRNVLNIIPASMNYAKAHSKDKKKPQRDSQAQKSPVKSKSTHRIQHNIDYLKHLSKVKKIPSDFEGSGYTDLQERGDNDISPFSGDGQPFKDIPGKGEATGPDLEGKDIQTGFAGPSEAESTHLDTKKPGYNEIPEREENGGNTIGTRDETAKEADAVDVSLVEGSNDIMGSTNFKELPGREGNRVDAGSQNAHQGKVEFHYPPAPSKEKRKEGSSDAAESTNYNEIPKNGKGSTRKGVDHSNRNQATLNEKQRFPSKGKSQGLPIPSRGLDNEIKNEMDSFNGPSHENIITHGRKYHYVPHRQNNSTRNKGMPQGKGSWGRQPHSNRRFSSRRRDDSSESSDSGSSSESDGD
Turning to B1, the urine phosphate is, setting by setting: (7 h, MEPE-40 i.p., vehicle 31.8) 41.0 mg/dL; (7 h, MEPE-400 i.p., vehicle 31.8) 56.1 mg/dL; (31 h second urine, MEPE400, vehicle 175.9) 297.4 mg/dL. Besides, the “fractional excretion of phosphate (FEP)” value (7 h, MEPE-400, vehicle 7.8%) is 14.43% and the “fractional excretion of phosphate (FEP)” value (31 h, MEPE-400, vehicle 28.7%) is given as 65.0%. Further, the serum phosphate reads like this: (31 h, MEPE-40 (40 ug/kg/30 h) i.p., not statistically significant) 10.6 mg/dL; (31 hours, MEPE-400 (400 ug/kg/30 h) i.p.) 8.23 mg/dL. Moreover, the “serum 1,25-dihydroxy vitamin-D3” value reads like this: (31 h, MEPE-40, pooled) 31.5 pg/mL; (31 h, MEPE-400, pooled) 45.05 pg/mL. Further, the serum alkaline phosphatase is 45.63 U/L (31 h, MEPE-40) and 46.31 U/L (31 h, MEPE-400). Also, the “urine phosphate vs vehicle” value (31 h, low-dose MEPE-40) is “not significantly different”. The “serum phosphate vs vehicle” value (after 7 hours, i.p., PTH and MEPE animals) is listed as “no significant differences”. For the same molecule, the “serum calcium vs vehicle” value (after 7 hours, PTH 80 ug/kg/30 h, low Hu-MEPE dose) was “not significantly different”. The FEP vs vehicle entry (low dose MEPE-40) is “not significantly different”.
